Source: patent publication US20190113512A1
“And” between values parts separate entries of the source, which are not always exact repeats. Equal values may be shown once.

Assays:
[1] = molecular target: fluorescent reagents used to detect binding activity
[2] = molecular target: fluorescent reagents used to detect binding activity; remark: listed apart in the source

| Binder | Secondary control signal [1] | Quadrant % Q1 [2] |
| --- | --- | --- |
| rcSso7d.H6BA.3 (designed binder) MATVKFTYQGEEKQVDISKIKRVIRAGQSIIFSYDEGGGAIGHGWVSEKDAPKELLQMLEKQ | 1.7% |  |
| rcSso7d.H2BA.1 (designed binder) MATVKFTYQGEEKQVDISKIKRVIRYGQAIAFAYDEGGGARGYGWVSEKDAPKELLQMLEKQ | 3.2% |  |
| rcSso7d.H4.3 (designed binder) MATVKFTYQGEEKQVDISKIKHVWRRGQNIYFRYDEGGGAWGAGAVSEKDAPKELLQMLEKQ | 0% |  |
| rcSso7d.H4.5 (designed binder) MATVKFTYQGEEKQVDISKIKGVYRHGQSIWFRYDEGGGAWGWGIVSEKDAPKELLQMLEKQ | 0.6% |  |
| rcSso7d.H4.7 (designed binder) MATVKFTYQGEEKQVDISKIKYVWRHGQHIAFRYDEGGGAHGWGSVSEKDAPKELLQMLEKQ | 0% |  |
| rcSso7d.H4.8 (designed binder) MATVKFTYQGEEKQVDISKIKDVWRHGQHIIFSYDEGGGAYGAGHVSEKDAPKELLQMLEKQ | 0% |  |
| rcSso7d.Rv1656 (yeast-surface displayed) (designed binder) MATVKFTYQGEEKQVDISKIKWVRRYGQYIGFSYDEGGGAWGKGYVSEKDAPKELLQMLEKQ | 0.6% and 2.3% and 0% | 0.1% |
| rcSso7d.H1BA.4 (designed binder) MATVKFTYQGEEKQVDISKIKNVYRWGQYIIFSYDEGGGAYGWGWVSEKDAPKELLQMLEKQ | 0% |  |
| rcSso7d.H4.6 (designed binder) MATVKFTYQGEEKQVDISKIKSVHRYGQKIYFDYDEGGGAIGKGHVSEKDAPKELLQMLEKQ | 0% |  |
| rcSso7d.H1BA.5 (designed binder) MATVKFTYQGEEKQVDISKIKYVRRYGQYIGFIYDEGGGAWGKGYVSEKDAPKELLQMLEKQ | 0.9% |  |
| rcSso7d.H6BA.2 (designed binder) MATVKFTYQGEEKQVDISKIKWVYRWGQYIIFAYDEGGGAAGKGSVSEKDAPKELLQMLEKQ | 7.3% |  |
| rcSso7d.H6BA.1 (designed binder) MATVKFTYQGEEKQVDISKIKWVYRYGQYIIFGYDEGGGAKGNGYVSEKDAPKELLQMLEKQ | 1.5% |  |
| rcSso7d.H1BA.1 (designed binder) MATVKFTYQGEEKQVDISKIKHVRRWGQYIIFAYDEGGGAYGGGWVSEKDAPKELLQMLEKQ | 6% |  |
| rcSso7d.H7.1 (designed binder) MATVKFTYQGEEKQVDISKIKYVYRWGQRIWFRYDEGGGAIGRGRVSEKDAPKELLQMLEKQ | 1.8% |  |
| rcSso7d.H1BA.6 (designed binder) MATVKFTYQGEEKQVDISKIKDVWRWGQWIDFIYDEGGGADGWGRVSEKDAPKELLQMLEKQ | 0.5% |  |
| rcSso7d.H4.4 (designed binder) MATVKFTYQGEEKQVDISKIKSVKRNGQSIDFDYDEGGGAAGEGKVSEKDAPKELLQMLEKQ | 0% |  |
| rcSso7d.H4.9 (designed binder) MATVKFTYQGEEKQVDISKIKYVKRIGQYISFNYDEGGGAHGHGIVSEKDAPKELLQMLEKQ | 0% |  |
